Blank lines part the entries; values can stand above or below the molecule they belong to.
Assays:
Assay type in all cases: biochemical
[1] = Oxidase activity testing against carbamazepine
Description: (§1) Lyophilised material of recombinant P450, ferredoxin and ferredoxin reductase proteins was made as described in Example 4 and reconstituted in high purity water to the original volume. Biocatalysis was performed with shaking incubation at 27° C. in the following conditions: 100 mM potassium phosphate pH 8.0, 5 mM MgCl2 (both present in the reconstituted enzyme preparation) and 0.1 mg/ml substrate compound such as ambroxide (Sigma-Aldrich, UK), carbamazepine (Sigma-Aldrich, UK), diclofenac (Sigma-Aldrich, UK), tivantinib (MedChemtronica, Sweden), clarithromycin (Tokyo Chemical Industry, Japan), sclareol (Sigma-Aldrich, UK), celecoxib (LC Laboratories, USA), buparvaquone (Sigma-Aldrich, UK), BIRB796 (MedChemExpress, USA), vanoxerine (CiVentiChem, USA), valsartan (Tokyo Chemical Industry, Japan), ruxolitinib (LC Laboratories, USA), perindopril (Selleckchem, USA), solifenacin (Key Organics, UK), 7-ethoxycoumarin (Tokyo Chemical Industry, Japan), tofacitinib (LC Laboratories, USA), ebastine (Key Organics, UK), efavirenz (Key Organics, UK), propanalol (Sigma-Aldrich, UK) and tolbutamide (Key Organics, UK).
(§2) Concentrations of P450, ferredoxin and ferredoxin reductase were as extracted (Example 4). Reactions were initiated by addition of 10× stock of cofactor mixture (50 mM G6P, 10 mM NADP+, 10 UN/ml G6PDH) to provide a final volume of e.g., 10 μl to 90 μl for 100 μl total reaction volumes. After 16-20 hours, reactions were extracted with an equal volume of acetonitrile, centrifuged to remove precipitated proteins and conversion assessed by UPLC-MS analysis.
(§3) UPLC Data were Obtained as Follows: • Column: Acquity UPLC BEH Shield RP18 1.7 μm 2.1 mm i.d. 50 mm length • Solvents: H2O, B: Acetonitrile, both with 0.1% Formic acid • Flow rate: 1.0 ml/min • Detector: Waters Acquity UPLC PDA (UV-Vis detection) and Waters Acquity UPLC QDA (MS)
To confirm the identities of reaction products where known, their chromatographic retention time, mass and ultraviolet spectra were compared with those of authentic metabolite standards.
Representative results for the % conversions of carbamazepine to oxidised (+16 Da) products for single point mutants at position L198 are shown in Table 3 below.

[2] = Oxidase activity testing against sclareol; conditions: for Average % conversion: substrate Sclareol, UPLC-MS UV or MS peak areas
Description: as §1, §2, §3
(§4) Representative results for the % conversions of various substrates to products by enzymes with mutations at position T109 or L198 and double mutants at T109 and 1129/L198 are shown in Table 4 below.

[3] = Oxidase activity testing against celecoxib; conditions: substrate Celecoxib
Description: as §1, §2, §3, §4

[4] = Oxidase activity testing against buparvaquone; conditions: substrate Buparvaquone
Description: as §1, §2, §3, §4

[5] = Oxidase activity testing against BIRB796; conditions: substrate BIRB796
Description: as §1, §2, §3, §4

[6] = Oxidase activity testing against vanoxerine; conditions: substrate Vanoxerine
Description: as §1, §2, §3, §4

[7] = Oxidase activity testing against valsartan; conditions: substrate Valsartan
Description: as §1, §2, §3, §4

[8] = Oxidase activity testing against ruxolitinib; conditions: substrate Ruxolitinib
Description: as §1, §2, §3, §4

[9] = Oxidase activity testing against perindopril; conditions: substrate Perindopril
Description: as §1, §2, §3, §4

[10] = Oxidase activity testing against solifenacin; conditions: substrate Solifenacin
Description: as §1, §2, §3, §4

[11] = Oxidase activity testing against 7-ethoxycoumarin; conditions: substrate 7-ethoxycoumarin
Description: as §1, §2, §3, §4

[12] = Oxidase activity testing against tofacitinib; conditions: substrate Tofacitinib
Description: as §1, §2, §3, §4

[13] = Oxidase activity testing against ebastine; conditions: for Average % conversion: substrate Ebastine
Description: as §1, §2, §3, §4

[14] = Oxidase activity testing against efavirenz; conditions: substrate Efavirenz
Description: as §1, §2, §3, §4

[15] = Oxidase activity testing against clarithromycin; conditions: for Average % conversion: substrate Clarithromycin; for new product at 3.12 minutes (3″-O-demethylclarithromycin) from clarithromycin: chromatographic analysis, FIGS. 5 and 6
Description: as §1, §2, §3, §4

[16] = Oxidase activity testing against propanalol; conditions: substrate Propanalol
Description: as §1, §2, §3, §4

[17] = Oxidase activity testing against tolbutamide; conditions: substrate Tolbutamide
Description: as §1, §2, §3, §4

B3: M15: P450SeuC10 with L198T mutation, SEQ ID NO: 34 (protein)
chain: MKIGTTHLTRLRGLSMTELTDITGPAAQAETVAFPQDRTCPYHPPTGYDPLRDGRPLSRVTLYDGREVWLVTAQATARALLADPRLSTDRRRDGFPVPTPRFAAGRDRTLALLGLDDPEHHRQRRLLIPSFTLKRATAQRPWIQRIVDELLDAMIARGPVADLVSAFALPVPSMVICELLGVPYADHEFFEEQSRRLTRGPTGADTTDARDRLEAYLGDLIDAKAKEAEPGDGILDDLVHNRLRAGELDRSVLVSLAVILLVAGHETTANMISLGTYTLLQHPERLAELRADPSLLPAVVEELLRMLSIAEGLQRLALEDIEIDGITIRAGEGVLFSTSVINRDTAVYEDPDDLDFHRADRHHVAFGFGIHQCLGQNLARAELEIALGSLFTRLPGLRLAAPAEEIPFKPGDTVQGMLELPVTW
modifications: SeuC10M15
Average % conversion ([2]; Batch 2): 61% | Average % conversion ([3]; Batch 2): 7.2% | Average % conversion ([4]; Batch 2): 0% | Average % conversion ([5]; Batch 2): 34.4% | Average % conversion ([6]; Batch 2): 41% | Average % conversion ([7]; Batch 2): 20.9% | Average % conversion ([8]; Batch 2): 100% | Average % conversion ([9]; Batch 2): 35.4% | Average % conversion ([10]; Batch 2): 6% | Average % conversion ([11]; Batch 2): 14.7% | Average % conversion ([12]; Batch 2): 32.3% | Average % conversion ([13]; Batch 2): 0.5% | Average % conversion ([14]; Batch 2): 4.3% | new product at 3.12 minutes (3″-O-demethylclarithromycin) from clarithromycin [15]: not observed | Average % conversion ([15]; Batch 2): 0% | Average % conversion ([16]; Batch 2): 0% | Average % conversion ([17]; Batch 2): 28.3%

B4: M52: P450SeuC10 with T109D mutation, SEQ ID NO: 122 (protein)
chain: MKIGTTHLTRLRGLSMTELTDITGPAAQAETVAFPQDRTCPYHPPTGYDPLRDGRPLSRVTLYDGREVWLVTAQATARALLADPRLSTDRRRDGFPVPTPRFAAGRDRDLALLGLDDPEHHRQRRLLIPSFTLKRATAQRPWIQRIVDELLDAMIARGPVADLVSAFALPVPSMVICELLGVPYADHEFFEEQSRRLLRGPTGADTTDARDRLEAYLGDLIDAKAKEAEPGDGILDDLVHNRLRAGELDRSVLVSLAVILLVAGHETTANMISLGTYTLLQHPERLAELRADPSLLPAVVEELLRMLSIAEGLQRLALEDIEIDGITIRAGEGVLFSTSVINRDTAVYEDPDDLDFHRADRHHVAFGFGIHQCLGQNLARAELEIALGSLFTRLPGLRLAAPAEEIPFKPGDTVQGMLELPVTW
modifications: SeuC10M52
Average % conversion ([2]; Batch 2): 25.4% | Average % conversion ([3]; Batch 2): 29.7% | Average % conversion ([4]; Batch 2): 24.8% | Average % conversion ([5]; Batch 2): 13% | Average % conversion ([6]; Batch 2): 65% | Average % conversion ([7]; Batch 2): 16.1% | Average % conversion ([8]; Batch 2): 87.7% | Average % conversion ([9]; Batch 2): 37.9% | Average % conversion ([10]; Batch 2): 17.2% | Average % conversion ([11]; Batch 2): 17.3% | Average % conversion ([12]; Batch 2): 38.2% | Average % conversion ([13]; Batch 2): 3.1% | Average % conversion ([14]; Batch 2): 0% | Average % conversion ([15]; Batch 2): 1% | Average % conversion ([16]; Batch 2): 0% | Average % conversion ([17]; Batch 2): 26.3%

Now from value to molecule, other results behind:

+16 Da (1.18 min) 253 m/z ([1]; 2-hydroxycarbamazepine, relative MS peak area): 1.1% | +16 Da (1.14 min) 253 m/z ([1]; carbamazepine epoxide, relative MS peak area): 15.8% | reaction products from carbamazepine (in words) ([1]; new product at 1.18 minutes identified as 2-hydroxycarbamazepine, epoxide at 1.14 minutes): produce a new product | Parent (1.31 min) 237 m/z ([1]; remaining carbamazepine, relative MS peak area, 0.1 mg/ml, 27° C., 16-20 hours): 83.1%
B1: SeuC10M9: P450SeuC10 with L198A mutation, SEQ ID NO: 22 (protein)
chain: MKIGTTHLTRLRGLSMTELTDITGPAAQAETVAFPQDRTCPYHPPTGYDPLRDGRPLSRVTLYDGREVWLVTAQATARALLADPRLSTDRRRDGFPVPTPRFAAGRDRTLALLGLDDPEHHRQRRLLIPSFTLKRATAQRPWIQRIVDELLDAMIARGPVADLVSAFALPVPSMVICELLGVPYADHEFFEEQSRRLARGPTGADTTDARDRLEAYLGDLIDAKAKEAEPGDGILDDLVHNRLRAGELDRSVLVSLAVILLVAGHETTANMISLGTYTLLQHPERLAELRADPSLLPAVVEELLRMLSIAEGLQRLALEDIEIDGITIRAGEGVLFSTSVINRDTAVYEDPDDLDFHRADRHHVAFGFGIHQCLGQNLARAELEIALGSLFTRLPGLRLAAPAEEIPFKPGDTVQGMLELPVTW
modifications: SeuC10M9
Average % conversion ([1]; substrate carbamazepine, relative MS peak areas): 16.9% | conversion of sclareol compared to wild-type (in words) [2]: significantly increased conversion | Average % conversion ([2]; Batch 1): 75.2% | Average % conversion ([3]; Batch 1): 2.6% | Average % conversion ([4]; Batch 1): 1.2% | Average % conversion ([5]; Batch 1): 10% | Average % conversion ([6]; Batch 1): 23% | Average % conversion ([7]; Batch 1): 6.9% | Average % conversion ([8]; Batch 1): 55.1% | Average % conversion ([9]; Batch 1): 15.7% | Average % conversion ([10]; Batch 1): 0.8% | Average % conversion ([11]; Batch 1): 10.7% | Average % conversion ([12]; Batch 1): 6.2% | conversion of ebastine compared to wild-type (in words) [13]: significantly increased conversion | Average % conversion ([13]; Batch 1): 25.1% | Average % conversion ([14]; Batch 1): 3.1% | Average % conversion ([15]; Batch 1): 0% | Average % conversion ([16]; Batch 1): 0% | Average % conversion ([17]; Batch 1): 14.7%

new product at 3.12 minutes (3″-O-demethylclarithromycin) from clarithromycin [15]: not observed
B2: M31: P450SeuC10 with T109F and I259A double mutations, SEQ ID NO: 128 (protein)
chain: MKIGTTHLTRLRGLSMTELTDITGPAAQAETVAFPQDRTCPYHPPTGYDPLRDGRPLSRVTLYDGREVWLVTAQATARALLADPRLSTDRRRDGFPVPTPRFAAGRDRFLALLGLDDPEHHRQRRLLIPSFTLKRATAQRPWIQRIVDELLDAMIARGPVADLVSAFALPVPSMVICELLGVPYADHEFFEEQSRRLLRGPTGADTTDARDRLEAYLGDLIDAKAKEAEPGDGILDDLVHNRLRAGELDRSVLVSLAVALLVAGHETTANMISLGTYTLLQHPERLAELRADPSLLPAVVEELLRMLSIAEGLQRLALEDIEIDGITIRAGEGVLFSTSVINRDTAVYEDPDDLDFHRADRHHVAFGFGIHQCLGQNLARAELEIALGSLFTRLPGLRLAAPAEEIPFKPGDTVQGMLELPVTW
modifications: SeuC10M31
Average % conversion ([2]; Batch 2): 1.3% | Average % conversion ([3]; Batch 2): 0.4% | Average % conversion ([4]; Batch 2): 0% | Average % conversion ([5]; Batch 2): 0% | Average % conversion ([6]; Batch 2): 11.4% | Average % conversion ([7]; Batch 2): 0.6% | Average % conversion ([8]; Batch 2): 46.9% | Average % conversion ([9]; Batch 2): 14.6% | Average % conversion ([10]; Batch 2): 2.2% | Average % conversion ([11]; Batch 2): 2.9% | Average % conversion ([12]; Batch 2): 8.2% | Average % conversion ([13]; Batch 2): 0% | Average % conversion ([14]; Batch 2): 4.1% | Average % conversion ([15]; Batch 2): 0.7% | Average % conversion ([16]; Batch 2): 0% | Average % conversion ([17]; Batch 2): 2.9%
